Source: patent US20240018226A1 (PROTHENA BIOSCIENCES, published 2024)

Columns and labels:
[1] = molecular target: T1, 4R2N-tau (Swiss-Prot P10636-8) (human, UniProt P10636 2-758); experiment: surface plasmon resonance
T1 construct: The construct used in SPR is not described; also called 441 amino acid tau protein

[2] = molecular target: T2, 3R2N-tau (Swiss-Prot P10636-5) (human, UniProt P10636 2-758); experiment: surface plasmon resonance
T2 construct: The construct used in SPR is not described
T2 sequence (P10636 other isoform, or with tags, fused parts or gaps limits assumed): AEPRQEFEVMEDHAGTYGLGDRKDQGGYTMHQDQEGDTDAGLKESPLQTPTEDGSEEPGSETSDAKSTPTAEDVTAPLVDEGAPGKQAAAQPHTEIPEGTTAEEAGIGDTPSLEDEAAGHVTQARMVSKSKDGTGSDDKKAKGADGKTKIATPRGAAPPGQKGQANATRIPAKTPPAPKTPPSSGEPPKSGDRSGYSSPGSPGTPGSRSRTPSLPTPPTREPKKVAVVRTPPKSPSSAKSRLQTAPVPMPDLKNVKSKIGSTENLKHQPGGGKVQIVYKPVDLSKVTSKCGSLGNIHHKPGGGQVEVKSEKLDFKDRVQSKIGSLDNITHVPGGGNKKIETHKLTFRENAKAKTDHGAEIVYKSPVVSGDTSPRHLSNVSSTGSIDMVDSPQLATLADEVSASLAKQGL

T1 sequence (P10636 other isoform, or with tags, fused parts or gaps limits assumed): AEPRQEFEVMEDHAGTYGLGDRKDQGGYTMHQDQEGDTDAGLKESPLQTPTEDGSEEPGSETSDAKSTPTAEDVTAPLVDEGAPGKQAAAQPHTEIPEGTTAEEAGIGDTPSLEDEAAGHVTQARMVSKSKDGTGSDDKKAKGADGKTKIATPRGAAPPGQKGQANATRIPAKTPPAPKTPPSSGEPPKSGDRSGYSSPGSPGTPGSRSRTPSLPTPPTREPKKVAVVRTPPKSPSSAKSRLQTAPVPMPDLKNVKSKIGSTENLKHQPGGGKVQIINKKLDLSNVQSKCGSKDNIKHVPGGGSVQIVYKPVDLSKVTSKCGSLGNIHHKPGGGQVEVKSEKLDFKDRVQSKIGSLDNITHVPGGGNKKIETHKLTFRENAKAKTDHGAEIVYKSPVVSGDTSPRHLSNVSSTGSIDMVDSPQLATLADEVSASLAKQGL

B1: hu3D6VHv1bA11/L2-DIM4 (antibody, human IgG1, kappa, V domains shown)
VH: EVQLVQSGAEVVKPGATVKISCKASGFNIKDYYLHWVRQRPGQGLEWIGWIDPENGDTVYDPKFQGRATITADTSTDTAYLQLGSLTSEDTAVYFCSTLDFWGQGTLVTVSS
VL: DVVMTQSPLSLPVTLGQPASISCKSSQSLLDSDGKTYLNWLQQRPGQSPRRLIYLVGKRDSGVPDRFSGSGSGTDFTLKISRVEAEDVGVYYCWQGTHFPYTFGGGTKLEIKR
notes: also called PRX005; humanized 3D6 variant
Kd [1]: 0.206 nM
Kd [2]: 0.154 nM
